A protein production outcome set (Wang et al. 2014)

assay: label from the status in PepcDB records

Protein production, not failed:
MIDKREVLAPNRRSRQREEIVAEEKRYEVYFQPLLSGVEVKKSNEIKIVLPQQEYNRIEQGAKGTLRLQGTRYISFVPNSVAKLEHHHHHH
MIDRPLEGKVAFITGAARGLGRAHAVRLAADGANIIAVDICEQIASVPYPLSTADDLAATVELVEDAGGGIVARQGDVRDRASLSVALQAGLDEFGRLDIVVANAGIAMMQAGDDGWRDVIDVNLTGVFHTVQVAIPTLIEQGTGGSIVLISSAAGLVGIGSSDPGSLGYAAAKHGVVGLMRAYANHLAPQNIRVNSVHPCGVDTPMINNEFFQQWLTTADMDAPHNLGNALPVELVQPTDIANAVAWLASEEARYVTGVTLPVDAGFVNKR
MIDVPFLKNVTLKKENIPSFSAYPYCLPAIRTLQSLAFHPNVTFIIGENGTGKSTLLEGIAIALGFNAEGGTKNFRFSTNDSHSSLHEYLRISKSFNTPSDGFFLRAESFYNVASYIDEIDADLEARGNPVIDSYGGISLHEQSHGESFFSLFMNRFSGQGLYILDEPEAALSPMRQLSMLIRMHELAEQGSQFVIATHSPILMAYPESTIYSLTQEGIQESALEDTEHYQTTKLFFENRDRLFHHLFNSLEHHHHHH
MIEIKNVNKVFYQGSKEILALKDINLHIAKGTIFGVIGSSGAGKSTLIRCVNMLEAPSSGSIIVDGVDLTTLSKKQLVETRRNIGMIFQHFNLLSSRTVFDNVALPLELAGKDKSQITTKVTELLKLVGLADKHESYPSNLSGGQKQRVAIARALASDPSVLLCDEATSALDPATTQSILELLKEINRKLNITILLITHEMEVVKSICHEVAIIGGGELVEKGTVGDIFAHPKTELAHEFIRSTLDLSIPEDYQARLQPNRVEGSYPLVRMEFTGATVDAPLMSQISRKYNIDVSILSSDLDYAGGVKFGMMVAELFGNEQDDSAAIEYLREHNVKVEVLGYVL
MIEQELTYQDLRIPSSEIYEAMGYKDSIPDQMVIDETNTLLKRVIPLLRPRFAFFFMEGTLDIEKETLSVQSIHPPTVNPIQDTIPTRSPEQNTFSTQSKSTVFSVGKTIARQLRGSEAFVFFAATAGTEFEVFQHTLQQEEDMVKIYIADSLGSIIAEKTADCMEVALAEYIREKNWKHTNRYSPGYCGWHVSEQQKLFPLFPIAAPCGIRLTDSSLMVPIKSVSGVIGTGTNVRKLEYTCGLCTYENCYRKRKHR

Protein production, failed:
MIDGNSIIVSSPEVAFPIAVRYAWADNPICNLYNGVNLPASPFRTDDWQGILMVINRYSCFDLPSEIDVTHKKITMNKLIYLVIFSFLSTSIYAQMKDLVQYVNTLQGTDSHFGLSYGNTYPTTGMPYAMHTWSAQTGKNGEGWKYQYAVDNIRGFCQSHQCSPWMSDYAVYSFMPMVGKLVVNQEMRATKFSHDNEIAKPHYYKVMLDNGITTEMAPTTRGVHLRFSYPSTEDAYLVIDGYTDMSEIKIDPAKRQISGWVNNQRFVNNSKTFRSYFVVQFDKAFEDYGMWENQKDEIYPKKLEGEGKGYGAYIKFKKGSKVQAKAASSYISAEQAVITLNDELGKDKNLEATKIRGHKTWNELLNRIQVEGGTDEQMKTFYSCLFRANLFSRKFYERKANGEPYYYSPYDGKVYDGYMYTDNGFWDTFRSQFPLTNILHPTMQGRYMNALLAAQEQCGWLPSWSAPGETGGMLGNHSISLLADAWAKGIRTFDPEKALKAYAHEAMNKGPWGGANGRGFWKEYFELGYVPYPESMGSSAQTMEYAYDDFCGYQLAKMTGNKHYQEVFARQMYNYKNVFDPSIGFMRGKGVDGKWQEPFDPLEWGGPFCEGNAWHYTWSVFHDVEGLIDLFGSDQRFTTKMDSVFTLPSTIKPGTYGGVIHEMKEMELSGMGQYAHGNQPIQHMPYLYSYAGQPWKTQYWVRQIVERLYNSTERGYPGDEDQGGMSSWYILSSLGIYAVCPGTDEYVIGSPLFKKATITMENGNKFVIEANNNSKENLYIQSATLNGRVLDKNFIRYDDIADGGIIRFEMGSQPNKERCTSKYAAPFSLSKE
MIDHRPTSWSRLCTALTSGASCTIGGQAVMEGVMMRNGDRLAIAMRRPDGEIVAESRPWFSLTRSAWLKRPFVRGFPILVETLVNGIKALNRSAEQAVEGETGEELKPWQLAATLAVSVAMALGLFVVVPHLFSIGMKLLGLGGDVEGLSFHMWDGFFKFAVFIGYIVAISFVPDIRRVFQYHGAEHKVIRAFEAAGDVTPDTAMHHSRLHPRCGTTFLLFVLSISIILHAVLVPLLMLVWTPSGAFAKHGVTVLFKLLLMIPISALAYETIRYAARLGEGLTGTLLRAPGMLLQKLTTGEPDREQLEVAIVALREALGDDAPQSVRAPAYRHLE
MIDLAVLPIYLTAVIALLLLPGPDMLLIASSSMSYGRKVGLFASLGNATSGLILTLLAAMGVSTLIAMSPVALKVLHLLGGAYLLKMGWDCLRAEASSAPELDQKNKMASTYYQRALMSNLLNPKALVFFVMFLPQFVSSNITASSGEQMLALGLLLNVLGLLFNLLLVALAGTLGKGLLENEKFRTYQHKLMGLVFVILALWMLSSFVL
MIDMEQDNRNQINGENISNASAGGTQPEQNTQSSQNMHPEQTGQGTQQDSLYHYSYMNNKGDARFDRPAGETSQQRMGAQTQNMRETANVQGGTQNTAYSGFQRNVNGMEAWYDSQRMNAGYQNPENNVGGYGQGSQSVPHKTETSHKHEKQPKPKKNSGKKSGVGKKVAGVVAAAVVFGLVAGVVFQGVRYGSDKMLNKNSATTEASADATTENNAPQLKQASSDATNTVYDVATVAQKVMPSIVSITGTYVTTYDYWFNSYQQESTGAGSGIIIGKDDQYLYLATNYHVVQNAKSLSVTFVNDKSADATVKGYVENNDIAVVTVKLADISDDTLNEIKEIQVGSSDDLSVGDPCVAIGNALGYGQSVTVGYISALNREISASDETVKVLQTDAAINPGNSGGALVNMQGELIGINTAKYSDTSVEGMGYALPISDIQDIINDLIAGKKVASDGTASGQAYLGISAQTITSQYSQLLNMPEGVYISSVEQGSAAEECGLQSGDIICSLDGEDIADMDTFHDRIVACKPGDKVTIVYYRNNNGNYEKQTTTATLQEKQ
MIDPRPVGYILGLLVATLGALMLVPMALDLAAGDRHWLSFAETATITTVAGSMLALACANGRGQGTGLSLQQSFLLTTGAWVLLPVFGALPFMMGRPDASFTDAVFEAMSGFTTTGTTVFVGLDALPLGTNLWRGMLQWLGGLGIVIVAMIFLPVMKVGGMQFFRSEGFDTLGKILPRALDISTALIQIYLVLTMACVMTFLALGIPLFEAVVHALTTVSTGGFSSSDRSFGLFQGPAEYACAFFMVLASLPFVRFVQLAQGTFLPLWRDPQVRAYLRWNGYAIGLIVAYEVVTRNAPVLPTLRETTFNVISTFSGTGFSSVDLGLWGTFPFVLLIVVGLIGGCTSSTGCSVKVFRYLILLEAIKVQIRRLQSPSAVIFVDYEGRRVGEDVINSVILFFTMFILSFGVLAVLLSLTGLQTKTAITAAWTAIANVGPAFGPEVSATGAVDRFPAVAKWLMIGGMLVGRLELLSVFVLLTPRFWRS
MIDVIGTDAGAPASLPAAQQALIRAAEQIAAPRRLQPALETWLESPVPLIDSDDPRHLVEVLSALSAQTNAVVLASGDPLWFGIGRILAERLGPERLRFHPAPTSLQLAFARIGRPWQDARWVSLHGRDPEPLARELQTRPRALAVLTDPGRGGADAVRRCLRSSGLEASYQLWLGENLGHADERMRLIPADAPLPEPLQPLLVALLIAEEPSIPNSRALPLFGLEDGLYLQHPDHPGLMTKREARIQLLADLDLPDQGVLWDLGAGTGSIGLEALRLRPQLRLLAVERRAGGAALIQANAKRLEVMPSAVVETDALSLLSADLPDGLDQPDRVLLGGGGPHREALLKAVLQRLRPSGIVVIPLATLEAVATLRPLMEQSGLTVQLNQLQAWRGQPLSDGTRLAPMNPILSLKGT
MIDWPLAELLPHAGDMILIDQVLAFDEEQIRTRLEVRPGGLFNRPDGSLPAWVGVELMAQSVAAYAGCRARQQGLPVELGFLLGTRKFECNVEHFPLGSTLEIHALRSLEDDNGMGVFECHLSGPGITASARLNVFRPPQAADYLHETPASSTGTPS
MIEKKRIEIFPKHMGFFPYMWFVYLLFPIYHLAQASGWKLVIGSGMLIIFIVTYRQLYFVQRTFVFWACIQMVLIFLFALFYNPFMIFFGFFTASAMGFAPNKKVFRVLLCSLVIMLGAFLFVNMNQLTTTSLVNIVPMFILMILTPFGMRNFNQKKMLRNQLDQANEQIKDLVKREERQRIARDLHDTLGHTLSLITLKSQLVEKLIVKNPERASAEAKEITQTSRTALKQLRELISDMRMITVEEELEQIKAILQAANIELEVRQEARSSSLSPIEQNIVGMCLREAVTNVVKHSKATRCAVSVLESQGELILKVEDNGIGLTDQNHDGNGIRGMKERIALIDGFVELGTINPGTLLTVKVPVVIRTGKDEVRA
MIELQLELFPGHIAGLLLVELSKPVEDFASIFIQGTWECALLDAGVVFHKSQLLTAVNVAFQRFEAGRLKTHSLHNEVMLALSAKLSIRDGLAAVRFSWEKTRCLVVAVDPPASFPQAAESTSNALAAKVRHFPEGANELFNELLVHVDKPSIQNLYGTDIDPHWICTKIATVEYVRQLR
MIEMLGIKIPLRKTTILPVLSFTLSSYFLTNFIFYLQYTDYTGLVEFLLIGAPFIGRAITPITYPFLMSRINIERITYLSLGNMAILDILEFFMGTDTLALILLRVATGILFGLATSAAVELATQSRSKIIMGMTMGGWALGWILSALMSFLMGKMVLITSSFSLVFFLLIKRSNIDKKLFSNSGSISIAFSWKALLIFLLGFEPAYILQLIPSLLGENNAIEETIIAYSISFIAYIILPSIGNIRISSLLTSLMIGILGFTSFITLKAWMFIPFTVLGLGLNSLLPIIIKLMKVEVTKIGPSMNLASLSGFLIPSLVSIGDIEINSAILTLISSISLGAIVYKNLKITA
MIESAVGKAAYSTAAFLIKSLPVVVIAIYAVSYSIKKGYLERFALFLQPALRKFGVSEFAVISFATCFVSPTASYSMLSQAWREKKVDDREVIAISFLNSFPSVFSHLYAYFIPFVIPVLGFAGVVYTAVRFAVAAIKSLIGLLLSRSRKNSDTSAPELSPLSVSQNVVRIGAVMAATYFIVSLLSQLGVFDLMAESLKFLPFRAEAVTIAIVEFFNIRSAVVTAASFIDAGLEWKWAVIGLILGNVISFSTRSVKHSLPMHLSLFGGFGVKIVLLNSIVTLILDIFFVVLLLLV
MIETLITFIIIFGIIVAIHEYGHLWWAKRSGILVREYAVGMGPKIFAHQAKDGTLYTIRILPLGGYVRLAGWGDDKTEIKKGQAASLVVSKSEVVNPEAENSVSNIVRRINLSEHVELEEAIPMLITEYDFEKELFIEGEVFGEIKRYSVDHDATIIEEDGTEVRIAPLDVQYQSAGVFHKMLTNFGGPLNNFILGIIAFIVLTFVQGGVPSTTNAIGQVEKGTPAYNAGLKAGDKIEAVNGTKTADWNNVVTEISGSKGKELKLEVSRSGKSETLSVTPKKMDGSYRVGIMQSMKTGFFDKITGGFVQAGQSATAIFKALGSLIARPSLDKLGGPVAIYQLSGQAARAGFPAIVYLLAMLSINLGIVNLFPIPVLDGGKIVLNIIEAIRGKALSQEKESIITMVGVVFMLVLFVAVTWNDILRAFVN
MIFERIKSEGLAHLSYLIGSGDEAIVIDPRRDCQVYFDLARSKGMKIKYIFETHRNEDYIIGSLELEKLTDAGIYHGSGVDFKYGNILKKDRQEFIFGALKLTALHTPGHTDESMSYVLTDPDAGKEPIMVFTGDALFVGDVGRTDLYGPEEVPRLAANLYDSIFNKILPLGDGVILCPAHGAGSLCGGAISNREYSTLGLEKVQNPVLKKTEKEEFVKFKLEEKLEFPPYFKKMEQYNLQGPPLLQSLPIPKLLSPDEFKAEMEKGAVVVDTRMPHSFGGALIKGSYSIWLEGLPSFAGWMLPYDKPILLVLEEKEQLETAVRYLVRLGYDNMRGFLNGGIAAWYMEALQIDGFNLLSVHDLKSKLEKDEEIVILDVRSNEEWEEGHIEGARHIYVGHVEENLDEIPKDCPIVVYCGSARRSNIAASVLKKHGYRKIYNVLGSMVAWKNAGYEVVK
